Results taken from the nanobody polyreactivity screen of Harvey et al. (2022).

Test: yeast display, Sf9 membrane polyspecificity reagent, FACS + sequencing; frameworks hold sequencing errors
Outline: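 Using colony PCR, genes from sorted yeast display clones were amplified, then sequenced on MiSeq at 2 × 250 and filtered by CDR length. The clones had been stained with 10% biotinylated, detergent-solubilized Sf9 membrane reagent for 1 hour at 4 °C and sorted by FACS into low and high (top ~1%) gates on anti-HA and streptavidin fluorescence. Polyreactivity labels come from the gate of origin.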

Question: Which “polyreactivity (PSR sort gate)” value does the source give for “QEQLVESGGGLVQAGGSLRLSCAASGFTFWYYAMGWYRQAPGKEREFVAAISLGGGRTYYADSVKGRFTHSRDNAKNTVYLQMNSLKPEDTAVYYCAVDSGTYRSYRYDYCGQGTQVTVSS” here?
Answer: high polyreactivity

Question: With “QVQLVESGGGLVQAGGRLRLICAASGRTFVVNAMGWYRQAPGQERELVAAITRRAGITYYADSVKGRFTISRDNAKNTVYLQMNSLKPEDTAVYYCAADRSYFPDTRTTYGYNYWGQGTQVTVSS” as the sequence, how does the “polyreactivity (PSR sort gate)” value read?
Answer: low polyreactivity

Question: Which “polyreactivity (PSR sort gate)” value does the source give for “QVQLVESGGGLVQAGGSLRLSCAASGSIFCYNTMGWYRQAPGKERELVAAITFSGGSTYYADSVKGRFTISRDNAKNTVYLKMNSLKPEDTAVYYCAAVFYSAVGYYYWGQGTQVTVSS” here?
Answer: low polyreactivity

Question: With “QVHLVESGGGLVQAGGSLRISCAASGSIFKGYAMGWYRQAPGKERELVAAITIDGSTYYADSVKGRFTISRDNAKNTVYLQMNSLKPEDTAVYYCDAVYLWYGSWPLHFAAYDYWGQGTQVTVSS” as the sequence, how does the “polyreactivity (PSR sort gate)” value read?
Answer: low polyreactivity

Question: With “QVQLQESGGGLVQAGGSLRLSCAASGSNFDTPTMGWYRQAPGKERELVASIAYDDNTYYADSVKGRFTISRYNAKNTVYLQMNSLKPGDTAVYYCAVTDRIYYYFVYWGQGTRVTVSS” as the sequence, how does the “polyreactivity (PSR sort gate)” value read?
Answer: high polyreactivity

Question: For “QVQLVESRGGLVQAGGSLRLSCAASGLIFRHYAMGWYRQAPGKERELVAAITGSGSTYYADSVKGRFTISRDNAKNTVYFQMNSLKPEDTAVDYCAATVYSSGAMDYWGQGTQVTVSS”, which “polyreactivity (PSR sort gate)” value is on record?
Answer: low polyreactivity

Question: With “QVQLVESGGGLVQAGGSLRLSCAASGRTIDHYAMGWYRQAPGKERELVAAISTTGGSTYYADSVKGRFTISRDNAKNTVYLQMNSLKPEDTAVYYCAARGLRTGGYWGQGTQVTVSS” as the sequence, how does the “polyreactivity (PSR sort gate)” value read?
Answer: high polyreactivity

Question: Which “polyreactivity (PSR sort gate)” value does the source give for “QVQLVESGGGLVQAGGSLRLSCAASGSIFDDYGMGWYRQAPGKEWEFVADITSRGTRTYYADSVKGRFTISRDNAKNTVYLQMNCLKPEDTAGYYFNTLVGVDFWLVDYWGQGTQVTLSS” here?
Answer: low polyreactivity

Question: Which “polyreactivity (PSR sort gate)” value does the source give for “QVQLVESGGGLVQAGGSLRLSCAASGFTFKYYAMGWYRQAPGKERELVAAISRRGTSTYYADSVKGRFTISRYNAKNTVYLQMNCLKPEDTAVYYCSACAYGTYSVYWINEYDYWGQGTQVTVSS” here?
Answer: high polyreactivity

Question: For “QVQLVESGGGLVQAGGSLRLSCAASGLTFRIYAMGWYRQAPGKERELVAAISWNGGSTYYADSVKGRFTISRDNAMNTVYLQMNSLKPEDTAVYYFNADPSDRRYPHTWTKMGYWGQGTQVTVSS”, which “polyreactivity (PSR sort gate)” value is on record?
Answer: low polyreactivity

Question: With “QLQLVESGGGLVQAGGSLRLSCAASGLIFTTNAMGWYRQAPGKEREFVAAISPSGGSTYYADSVKGRFTISRDNAKNTVYLQMKSLKPEDTAVYYCAKRPYVGYDWGQGTQVTVSS” as the sequence, how does the “polyreactivity (PSR sort gate)” value read?
Answer: high polyreactivity

Question: For “QVQLVESGGGLVQAGGSLRLSCAASGRIFRRNAMGWYRQAPGKERELVAAISSSGGRTYYADSVKGRFTISRDNAKNTVYLQMNSLKPEDTAVYYCATRESLEPGYYWGQGTQVTVSS”, which “polyreactivity (PSR sort gate)” value is on record?
Answer: high polyreactivity

Question: With “QVQLHESGGGLVQAGGSLRRSCAPSGTISYAGPMGWYRQAPGKEREFVAGIGVGSNTNYADSVKGRYTIIRDNAKNTVYLQMNSLKPEDTAVYYCAVGGYAPLGRPYWGQGTQVTVSS” as the sequence, how does the “polyreactivity (PSR sort gate)” value read?
Answer: low polyreactivity

Question: With “QVQLVESGGGLVQAGGSLRLSCAASGGIIFYYAMGWYRQAPGKERALVAAISYSGGSTYYADSVKGRFTISRDNAKNTVYLQMNSLKPEDTAVYYCAARTHYFPWPWYVWDYDSWGQGTQVTVSS” as the sequence, how does the “polyreactivity (PSR sort gate)” value read?
Answer: low polyreactivity

Question: Which “polyreactivity (PSR sort gate)” value does the source give for “QVQLVESGRGLVQAGGSLRLSCAASGRTFRWYAMGWYRKAPGKERELVAAISGSGDRTYYADSVKGRFTISRDNAKNTVYLQMYSLKPVDTAVYYCYKAYLLYYTYARGDYWGQGTQVTVSS” here?
Answer: high polyreactivity

Question: Which “polyreactivity (PSR sort gate)” value does the source give for “QVQLVESGGGLVQAGGSLRLSCAASGFIFESNAMGWYRQAPGKERELVAAISKRGGSTYYADSVKGRFTISRDNAKNTVYLQMNSLKPEDTAVYYCNKARGYYHPGYQYGLDYWGQGTQVTVSS” here?
Answer: high polyreactivity

Question: With “QVQLVESGGGLVQAGGSLRLSCAASGSIFRWYAMGWYRQAPGKERELVAAITWSASRTYYADSVKGRFTISRDNAKNTVYLQMNSLKPEDTAVYYCAADHDGPYAGYDSWGQGTQVTVSS” as the sequence, how does the “polyreactivity (PSR sort gate)” value read?
Answer: low polyreactivity

Question: For “QVQLVESGGGLVQAGGSLRLICAASGSTFYYNDMGWYRQAPGKERELVAAITGDGTTDYADSVKGRFTISRDNAKNTVYLQMNSLKPEDTAVYYCATTWSTYKWPDAYIIWYGYWGQGTQVTVSS”, which “polyreactivity (PSR sort gate)” value is on record?
Answer: high polyreactivity

Question: For “QVQLVESGGGLVQAGGSLRLSCAASGRIFRYNAMGWYRQAPGKERELVAAISWSGGSTYADSVKGRFTISRDNAKNTVYLQMNSLKPEDTAVYFCAADSSDLYVWGYDHGGQGTQVTVSS”, which “polyreactivity (PSR sort gate)” value is on record?
Answer: low polyreactivity

Question: Which “polyreactivity (PSR sort gate)” value does the source give for “QVQLVESVGGLVQAGGSLRLSCAASGSILVSYAMGWSRQAPGKERELGPAITQGGGSTYYADCVKGRFTFSRDNAKNTVYLQMNSLKPEDTAVYYCSVDGLSDDRYSAGGDYWGQGTQVTVSS” here?
Answer: low polyreactivity

Question: With “QVQLVESGGGLVQAGGSLRLSCAASGIIFFLYAMGWYRPAPGKERELVAAISSGGSTYYADSVKGRFTISRDNAKNTVYLQMNSLKPEDTAVYYCNARYWPFRYYYWGQGTQVTVSS” as the sequence, how does the “polyreactivity (PSR sort gate)” value read?
Answer: high polyreactivity

Question: Which “polyreactivity (PSR sort gate)” value does the source give for “QVKLVETGGGLVQAGGSLRLSCAASGFIFYKYAMGWYRQAPGKERELVASITSGGITNYADSVKGRFTISRDNAKNTVYLQMNSLKPVDTAVYYCNVRWYSRWLITTDYNYWGQGTQVTVSS” here?
Answer: high polyreactivity
